For the test, the target named is recombinant Ku70 (human) (UniProt P12956). The test is described as follows: not stated; complex of recombinant Ku70 and IN; method of the Kd not told.

pKd: −log10 of the molar value.

Here are results for one substance from publication PMC5046194.

Chain of UniProt P12956 (P12956 whole entry): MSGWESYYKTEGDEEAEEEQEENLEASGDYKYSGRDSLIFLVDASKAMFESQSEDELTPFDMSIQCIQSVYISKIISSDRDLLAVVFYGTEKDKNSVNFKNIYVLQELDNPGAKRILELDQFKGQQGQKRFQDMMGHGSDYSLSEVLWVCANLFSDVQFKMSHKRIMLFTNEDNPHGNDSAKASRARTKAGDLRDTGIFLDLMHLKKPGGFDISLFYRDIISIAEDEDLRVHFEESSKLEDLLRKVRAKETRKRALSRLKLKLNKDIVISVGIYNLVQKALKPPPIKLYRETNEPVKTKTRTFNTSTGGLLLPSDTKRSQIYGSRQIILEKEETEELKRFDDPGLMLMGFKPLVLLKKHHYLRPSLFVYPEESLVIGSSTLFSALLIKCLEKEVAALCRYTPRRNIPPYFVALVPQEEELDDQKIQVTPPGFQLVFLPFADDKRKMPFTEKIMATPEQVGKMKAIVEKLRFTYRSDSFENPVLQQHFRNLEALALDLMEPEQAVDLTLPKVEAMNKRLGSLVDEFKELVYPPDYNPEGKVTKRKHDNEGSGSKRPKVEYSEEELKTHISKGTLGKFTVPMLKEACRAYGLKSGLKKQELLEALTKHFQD

In the case of “recombinant His6-IN, wild type (HIV-1 integrase, abstract P13) (enzyme)”, the pKd was 7.15.

What is called pKd is the negative decadic logarithm of the Kd, by convention in mol/L.
